The record followed here is US8507245B2, “Site-directed pegylation of arginases and the use thereof as anti-cancer and anti-viral agents” (priority 2009, dated 2013).

Where two headings read alike, the source gives them in different places. Bounds are passed on as bounds.

Data set [1] has as its system HCT-15 human colorectal cancer cells. The data set is classed as in vivo, BALB/c nude mice. The method, then:
Athymic nude BALB/c mice (age of 6-8 weeks) were housed under sterile conditions with 12 hour light-dark cycle and provided with autoclaved feed ad libitum. The mice were acclimated for at least 1 week before the start of experiments. Each nude mouse was implanted with ˜3 mm^3 of in vivo maintained HCT-15 human colorectal cancer cells to the right axilla subcutaneously. When stable palpable tumours of ˜5 mm diameter were developed, the mice were randomly separated into five different groups (Table 6). Intraperitoneal administrations of arginase drugs or control vehicle (PBS) were given twice per week while 5-fluorouracil was given once per week starting from Day 0. Tumour dimensions (L: longest diameter and W: its perpendicular diameter) and body weights were measured on every Mondays, Wednesdays and Fridays with Vernier caliper. Tumour volume was calculated with the formula (½×L×W^2) and no. of fold increase in tumour volume (relative tumour volume) was calculated with reference to Day-0. The results were plotted against time. The mice were euthanized at the end of experiment or when tumour diameter reached 2.5 cm.

Another data set relates to blood arginine. Nature of the data set: Pharmacodynamics: depletion of arginine in BALB/c normal mice. The data set is classed as in vivo. Conditions: plasma, single i.p. dose. The method, then:
Pharmacodynamics of Cys^45 pegylated human arginase I and Cys^161 pegylated Bacillus caldovelox arginase were studied using BALB/c normal mice. The study was carried out in conjunction with the pharmacokinetic study (described below). Therefore, the protocol remained the same. Again, the blood samples collected was centrifuged immediately at 13,200 rpm for 5 minutes and the plasma layer were collected for further analysis using the Amino Acid Analyzer (Biochrom 30, Biochrom Ltd., England).

Data set [2] deals with hepatocellular carcinoma Hep3B cells. The data set is classed as in vivo, BALB/c nude mice. The note with it: for effect on tumour growth (tumour volume) vs PBS control: 500 Units/mouse i.p. weekly for 8 weeks, HAI-PEG20 effect from Day 47 (p<0.01); for average body weight: mouse, in vivo, ip. The method, then:
A number of BALB/c nude mice were injected with hepatocellular carcinoma Hep3B cells intraperitoneally (i.p.) and maintained in vivo. Then each of the 30 BALB/c nude mice was injected with ˜1×10^6 of the in vivo maintained cancer cells to the right axilla subcutaneously. When palpable tumours of 5 mm diameter were developed, the mice were separated into three different groups (see Table 3). Drugs or PBS buffer were administered intraperitoneally weekly starting on day 0 for 8 weeks. Body weights and tumour dimensions (L: length of the longer diameter and W: length of the shorter diameter of the tumour) were measured twice a week. Tumour volume (½×L×W^2) was calculated and plotted against time. After 60 days or when tumour diameter reached 2.5 cm, the mice were euthanized. Survival rates of the mice were recorded at the end of the study.

The test system of the next data set is HIV-1 strain RF. Nature of the data set: HIV replication (virus inhibition) assay in H9 cells.
The nature of data set [3]: Steady-state kinetics of human arginase I with Mn2+ or Co2+ (DAMO assay). The class given is biochemical. The note with it: for Km: sodium phosphate buffer pH 7.4, 25° C. The method, then: Diacetylmonoxine (DAMO) assay was used to determine the kinetic parameters of human arginase with different metal cofactors. All enzymatic reactions were carried out at pH 7.4.
A further data set deals with MDA-MB-231. In words: Cell proliferation assay (MTT, Table 11). The class given is cell-based. The note with it: MDA-MB-231 breast, 3 days.
The next data set relates to 4T1. Nature of the data set: Cell proliferation assay (MTT, Table 11). The data set is classed as cell-based, mouse. The note with it: 4T1 breast, 3 days. The protocol:
1×10^5 cells of a mouse metastatic breast cancer cell line (4T1) were injected orthotopically into the No. 4 inguinal mammary fat pad of wild-type BALB/c mice at the age of 6-8 weeks. When the tumors reached an average of 5 mm, the mice were divided into two different treatment groups (Table 7). BCA-PEG20 (250 U/mouse) or control vehicle (PBS) were injected intraperitoneally twice per week starting from Day 0. Body weight was measured every week. After three weeks, the mice were sacrificed and analyzed for the lung metastasis. The number of lung metastases was counted under a dissecting microscope after rinsing with PBS.
Cell Proliferation Assay: For each cancer cell line, cells (5×10^3) in 100 μL culture medium were seeded to the wells of a 96-well plate and incubated for 24 hours by standard method.

The conditions of data set [4]: sodium phosphate buffer pH 7.4, 25° C.
Description: Either Bacillus caldovelox arginase (BCA) or the human arginase I (HAI) was expressed as described previously. The purification method was the same as described before except 10 mM of metal ion (CoSO4 or MnSO4) was added into the purified protein elution from Nickel affinity chromatography instead of added before Nickel affinity chromatography. Eluted factions containing the arginase enzyme were incubated with 10 mM metal for 15 min at 50˜55° C., followed by filtration through a 0.45 μm syringe filter. Then the solution was exchanged with storage buffer by ultrafiltration.
The mutant genes were cloned, expressed and purified for detailed studies.

For `O=c1[nH]cc(F)c(=O)[nH]1` [5-fluorouracil], the “effect on tumour growth vs control” value in data set [1] (arginases i.p. twice per week (BCA 500, BCA-PEG20 250 Units/mouse), 5-fluorouracil 10 mg/kg once per week) is reported as “did not show significant tumour suppression”. Further, in data set [1] (mouse, in vivo), the “average body weight, last recorded” value amounted to 24.5 ± 1.4 g.

B1: HAI-PEG20: Cys^45-specific mono-pegylated 6xHis-tagged human arginase I mutant (C168S/C303S) with single chain mPEG-maleimide (20 kDa) (conjugate, UniProt P05089 1-322, looked up, variant C168S C303S)
Arginase-1: MSAKSRTIGIIGAPFSKGQPRGGVEEGPTVLRKAGLLEKLKEQECDVKDYGDLPFADIPNDSPFQIVKNPRSVGKASEQLAGKVAEVKKNGRISLVLGGDHSLAIGSISGHARVHPDLGVIWVDAHTDINTPLTTTSGNLHGQPVSFLLKELKGKIPDVPGFSWVTPSISAKDIVYIGLRDVDPGEHYILKTLGIKYFSMTEVDRLGIGKVMEETLSYLLGRKKRPIHLSFDVDGLDPSFTPATGTPVVGGLTYREGLYITEEIYKTGLLSGLDIMEVNPSLGKTPEEVTRTVNTAVAITLASFGLAREGNHKPIDYLNPPK
modifications: 20 kDa mPEG-maleimide at Cys45; 6xHis tag
On to B1, for which the “time at which arginine started to appear after arginase administration” value in the data set on blood arginine was determined as 6.8 ± 2.3 days. Further, the arginine depletion entry in the data set with blood arginine (starting from 6 hr (Day 0)) is recorded as “totally depleted”. Besides, the ornithine level in the data set with blood arginine (stayed at high level up to Day 3) is more than 150 µM. Also, the “effect on tumour growth (tumour volume) vs PBS control” value in data set [2] was “significantly reduced the rate of tumour growth”. The molecule further showed an average body weight in data set [2] of 25.0 ± 0.2 g. Further, the “wells displaying cytopathic effect (positive wells/wells inoculated)” value in the data set on HIV-1 strain RF (1 U/mL) is given as 8/8; with HIV-1 strain RF (10 U/mL), 6/8; with HIV-1 strain RF (50 U/mL) it was 3/8. Besides, the “IC50 on HIV” value with HIV-1 strain RF (H9 cells, five days post infection, cytopathic effect) was “approximately 37 U/mL”.

B2: HAI Mn^2+: recombinant human arginase I with Mn^2+ as metal cofactor (protein, UniProt P05089 1-322, looked up)
Arginase-1: MSAKSRTIGIIGAPFSKGQPRGGVEEGPTVLRKAGLLEKLKEQECDVKDYGDLPFADIPNDSPFQIVKNPRSVGKASEQLAGKVAEVKKNGRISLVLGGDHSLAIGSISGHARVHPDLGVIWVDAHTDINTPLTTTSGNLHGQPVSFLLKELKGKIPDVPGFSWVTPCISAKDIVYIGLRDVDPGEHYILKTLGIKYFSMTEVDRLGIGKVMEETLSYLLGRKKRPIHLSFDVDGLDPSFTPATGTPVVGGLTYREGLYITEEIYKTGLLSGLDIMEVNPSLGKTPEEVTRTVNTAVAITLACFGLAREGNHKPIDYLNPPK
modifications: Mn2+ cofactor
notes: recombinant human arginase I with Mn^2+ as metal cofactor
As to B2, the Michaelis constant (Km) (usually the concentration of substrate that gives half-maximal velocity) in data set [3] was found to be 1.83 mM.

B3: HAI: non-pegylated 6xHis-tagged recombinant human arginase I (protein, UniProt P05089 1-322, looked up)
Arginase-1: MSAKSRTIGIIGAPFSKGQPRGGVEEGPTVLRKAGLLEKLKEQECDVKDYGDLPFADIPNDSPFQIVKNPRSVGKASEQLAGKVAEVKKNGRISLVLGGDHSLAIGSISGHARVHPDLGVIWVDAHTDINTPLTTTSGNLHGQPVSFLLKELKGKIPDVPGFSWVTPCISAKDIVYIGLRDVDPGEHYILKTLGIKYFSMTEVDRLGIGKVMEETLSYLLGRKKRPIHLSFDVDGLDPSFTPATGTPVVGGLTYREGLYITEEIYKTGLLSGLDIMEVNPSLGKTPEEVTRTVNTAVAITLACFGLAREGNHKPIDYLNPPK
modifications: 6xHis tag
notes: non-pegylated 6xHis-tagged recombinant human arginase I
In the case of B3, the IC50 in the data set on MDA-MB-231 worked out at 0.273 U/mL; with 4T1, 0.058 U/mL. Besides, the “effect on tumour growth (tumour volume) vs PBS control” value in data set [2] is “did not show any significant effect”. Further, the average body weight in data set [2] is 25.5 ± 0.2 g.

B4: HAI Co^2+: recombinant human arginase I with cobalt replacing manganese as metal cofactor (protein, UniProt P05089 1-322, looked up)
Arginase-1: MSAKSRTIGIIGAPFSKGQPRGGVEEGPTVLRKAGLLEKLKEQECDVKDYGDLPFADIPNDSPFQIVKNPRSVGKASEQLAGKVAEVKKNGRISLVLGGDHSLAIGSISGHARVHPDLGVIWVDAHTDINTPLTTTSGNLHGQPVSFLLKELKGKIPDVPGFSWVTPCISAKDIVYIGLRDVDPGEHYILKTLGIKYFSMTEVDRLGIGKVMEETLSYLLGRKKRPIHLSFDVDGLDPSFTPATGTPVVGGLTYREGLYITEEIYKTGLLSGLDIMEVNPSLGKTPEEVTRTVNTAVAITLACFGLAREGNHKPIDYLNPPK
modifications: cobalt cofactor
With B4, the “improvement of Km value vs HAI Mn^2+” value in data set [3] (pH 7.4, 25° C.) is on record as “about 10 fold”. Moreover, the Km in data set [3] came to 0.19 mM.

B5: BCA mutant V20P Mn^2+ (protein, UniProt P53608 1-299, looked up, variant V20P)
Arginase: MKPISIIGVPMDLGQTRRGPDMGPSAMRYAGVIERLERLHYDIEDLGDIPIGKAERLHEQGDSRLRNLKAVAEANEKLAAAVDQVVQRGRFPLVLGGDHSIAIGTLAGVAKHYERLGVIWYDAHGDVNTAETSPSGNIHGMPLAASLGFGHPALTQIGGYSPKIKPEHVVLIGVRSLDEGEKKFIREKGIKIYTMHEVDRLGMTRVMEETIAYLKERTDGVHLSLDLDGLDPSDAPGVGTPVIGGLTYRESHLAMEMLAEAQIITSAEFVEVNPILDERNKTASVAVALMGSLFGEKLM
modifications: Mn2+
Consider B5, for which, in data set [4], the Km is approximately 1.29 mM.

B6: BCA mutant V20P Co^2+ (protein, UniProt P53608 1-299, looked up, variant V20P)
Arginase: MKPISIIGVPMDLGQTRRGPDMGPSAMRYAGVIERLERLHYDIEDLGDIPIGKAERLHEQGDSRLRNLKAVAEANEKLAAAVDQVVQRGRFPLVLGGDHSIAIGTLAGVAKHYERLGVIWYDAHGDVNTAETSPSGNIHGMPLAASLGFGHPALTQIGGYSPKIKPEHVVLIGVRSLDEGEKKFIREKGIKIYTMHEVDRLGMTRVMEETIAYLKERTDGVHLSLDLDGLDPSDAPGVGTPVIGGLTYRESHLAMEMLAEAQIITSAEFVEVNPILDERNKTASVAVALMGSLFGEKLM
modifications: Co2+
In the case of B6, the Michaelis constant (Km) in data set [4] was approximately 0.18 mM.

B7: BCAWTMn^2+: wild-type Bacillus caldovelox arginase with Mn^2+ (protein, UniProt P53608 1-299, looked up)
Arginase: MKPISIIGVPMDLGQTRRGVDMGPSAMRYAGVIERLERLHYDIEDLGDIPIGKAERLHEQGDSRLRNLKAVAEANEKLAAAVDQVVQRGRFPLVLGGDHSIAIGTLAGVAKHYERLGVIWYDAHGDVNTAETSPSGNIHGMPLAASLGFGHPALTQIGGYSPKIKPEHVVLIGVRSLDEGEKKFIREKGIKIYTMHEVDRLGMTRVMEETIAYLKERTDGVHLSLDLDGLDPSDAPGVGTPVIGGLTYRESHLAMEMLAEAQIITSAEFVEVNPILDERNKTASVAVALMGSLFGEKLM
modifications: Mn2+
Consider B7, for which the Km in data set [4] is approximately 3.2 mM.
